Results reported in the DeepSol protein solubility set.

experiment: soluble on expression in E. coli; label from the status in PepcDB or PDB records

Sequence	soluble on expression in E. coli
MPNQVLFCITKMRYEEKRIYHYLEESGLSIKIMLDSSNLDEVVAHNSDYCLCIVRVMSQHRAFRIAEYMEALGIPTLNSSRAIQICADKAIQALILANRDVIKQPHFSILRNYEDLSNFNGKMVVKPVSSSWGRGISLIENEDALTTWKISHQELDIQNQNLPYLIQEFIDKPNYDVRIVIINTKPVVAFKRVSANNWKTNTHLGATVVPIVIDDSINKIVTEIIKVVGPGIYGLDLMKNRQNEWIFCEINQNPEFAHSWKIHHVDVAEKIAQYVSSKVKVGQKNASTHLEHHHHHH	not soluble
MGSDKIHHHHHHMTPRANALPTDAGELYYSYARPADGALPSLSRQKGLLGIITFQTGFVGEGDGAKPEGILQIPLSGRGDDLCELWKTTQPVLAGTFGDITYRCSRDFLFGSIALAVADLPAGNHGLIHPPLQNAAELAYQQIFSLLDRHGYPGLLRIWNFVPDINGVSHGLEHYRQFNIGRQDAFLAHNRLPSRQNIPAASALGSVDGPLVVYFLAARRNSVAVENPRQISAYHYPQEYGPSSPTFSRAGWVDLGQQKILFISGTASIIGHQTRHGGNVAAQARESMANIAAVVAETNRVAAGSPYDLNDLSYKVYLRQFTDLPIVRAELDRLVTPKAPIFYLQADICRADLLVEIEATAGVLHGGMA	not soluble
MSDKIIHLTDDSFDTDVLKADGAILVDFWAEWCGPIEESDDRRYDLVGPCKMIAPILDEIADEYQGKLTVAKLNIDQNPGTAPKYGIRGIPTLLLFKNGEVAATKVGALSKGQLKEFLDANLA	soluble
MNLLFQSYLDNVGVQIVRQMRSGERFLKIWSQTVEEIVSYVTVNF	soluble
MFTQRKKWLSGVAAGLLMAASVSASAEEKILHIYNWSDYIAPDTLANFQKETGIKVVYDVFDSNEVLEGKLMAGSTGFDLVVPSASFLERQLSAGVFKPLDKSKLPNEKNLDPELLALVSKHDPDNKYAIPYLWATTGIGYNVEKVKAVLGEDAPVNSWDLVLKPENLEKLKSCGVSFLDAPSEIFATVLNYLGKDPNSTLTADYTGSATDLLLKLRPNIRYFHSSQYINDLANGDICVAVGWAGDIMQASNRAKEAKNGVNVAYSIPKEGALAFFDVFAMPTDAKNQDEAYQFLNYLMRPDVIANISNHVFYANANQAATPLVNAEVRDNPGIYPPADVRAKMFTLKVQDPKIDRVITRAWTKVKSGK	not soluble
ITDRKVLERELATRNAFLTAVLQTSVSAIVALNAEGGIVYANDEARRLLVLQPHRGGLRMEAVLETLDGRPLPEADMPSALVRATGAPLHDLRYAIRRPDGQFGILSINAAPLPQAADDARIVISVTDIT	not soluble
MGSDKIHHHHHHVAKAAQRKLLLSELQLGMRVKLPLSWTNHPFLFNRVDINSLAQIEMIRGLGVPYVFLLSEVNTKSEQPSTDNKIIEVQEQPKTERDIKSATRKAMRLSQKRFLEGVNQCRNMFGKIVSDPEGAYRQSATLVEEMLSHLQEVEQPFLTLVGMDENEVSVTQHGVSVAVIAMMIGHALDLTPRELRDIALGSLLHDIGKLKVPENIRRKLSALTTNEANYLQMHPNFGYDMLNRSGLFPKEVLNIVLHHHEFIDGSGFPDGLTGNKIPIVTQIVALANDFDQHLSGQQASSPQVALGYLFKNRAAKHAESLISVLVKILGIYPPGTIVKLSDDSVAKVIMTTKEVAQPQVWACKPDGSEASLRFLSEEGVTVQKALKAEELTEGAIRTLQVDKGVSFYFSALQA	not soluble
MLSSSPASCTSPSPGTDNPDKKVHWASEKRRRASSTDSESKTHLDISKLPRSRRPSRLTVKYDRGHLQRWLEMEQWVDAQVQELFQGQEESSEPEIDLEALMDLSTEDQRTQLEAILQDCPGNREPFISELLSQLKRLRRLSRPSK	soluble
MGSDKIHHHHHHMDAFYASVEQRDNPELCGKPLAVGHAEERGVVAAASYEARRYGVHSAMSSQKAKRLCPELIFVPGRMNVYKAVSRQIHDIFHTYTDIIEPLSLDEAFLDVTENKAGFSLAIDIAKDIKKRIRKELGLIASAGVSYNKFLAKIASDYRKPDGLCTIHPDQALDFIAHLPIESFWGVGPVTAQKMHALGIHNGTQLQACTLEMLTRQFGKAGNLYYDFARGIDLRPVEPIRIRKSVGCEHTLEKDISLHSSAIIELYHVVTELLERLKRTNFSGNTLTLKIKFHDFNQITRSITQDSELTSMDKILPLAKKLLKEIDYESHPIRLIGLSVSNPKEEIKKQWEQLSLEFKEWDD	not soluble
MAHHHHHHMELCLYNSKNGYLEALLRGFRSSFLTPEEYKKLTEVDTLEDLKSVLEDTDYGSFMMDEPSPIAVTTIAQKCKEKMAHEFNYIRAQAEEPLRTFLDYIAKEKMIDNVIILIHGTLNKKPAEELLSRVDPLGYFPQMKAITTMDVQNSHDDVLKVLLIETPIGTYFDKYISANASNEKNNVTTILNEMDIEILRNTLKKAWLEDFYDFIRELGGKTEEVMGHILKSVADFRVLSVTLNTINSSLSLELQKDRNDMFPCFGYLYPEGTDRIRKCWNNETVQAALENYPTYYNLYEECKQFYMKNENMQDSKIVDHKVKSLEDLLYVKLVKLCETAFDQHCHFGIFYAWVKLKEQEIRNIVWISDMILMNRKDCIDSIIPIFEPQI	not soluble
MGSDKIHHHHHHMMDTVKNRRTIRKYQQKDITPDLLNDLLETSFRASTMGGMQLYSVVVTRDAEKKEILSPAHFNQPMVKEAPVVLTFCADFRRFCKYCQERNAVPGYGNLMSFLNAAMDTLLVAQTFCTLAEEAGLGICYLGTTTYNPQMIIDALHLPELVFPITTVTVGYPAESPKQVDRLPIEGIIHEESYHDYTAEDINRLYAYKESLPENKLFIEENQKETLPQVFTDVRYTKKDNEFMSENLLKVLRRQGFMD	not soluble
MKKIFMMVHELDVNKGGMTSSMFNRSKEFYDADIPADIVTFDYKGNYDEIIKALKKQGKMDRRTKMYNVFEYFKQISNNKHFKSNKLLYKHISERLKNTIEIEESKGISRYFDITTGTYIAYIRKSKSEKVIDFFKDNKRIERFSFIDNKVHMKETFNVDNKVCYQVFYDEKGYPYISRNINANNGAVGKTYVLVNKKEFKNNLALCVYYLEKLIKDSKDSIMICDGPGSFPKMFNTNHKNAQKYGVIHVNHHENFDDTGAFKKSEKYIIENANKINGVIVLTEAQRLDILNQFDVENIFTISNFVKIHNAPKHFQTEKIVGHISRMVPTKRIDLLIEVAELVVKKDNAVKFHIYGEGSVKDKIAKMIEDKNLERNVFLKGYTTTPQKCLEDFKLVVSTSQYEGQGLSMIEAMISKRPVVAFDIKYGPSDFIEDNKNGYLIENHNINDMADKILQLVNNDVLAAEFGSKARENIIEKYSTESILEKWLNLFNS	not soluble
MGISTFFLSVTLFTVNRTCDLLTPPPWYPITVKNTHHTSRHRSIFFILSVMIGKGTREDVQLSLSSLFQGVVMIVGQNPQAPSDLGIEGGERAQGQNAHSVHGPGLQTERGGSQLQMVGHPLRELLEHHHHHH	not soluble
MSLKNTPPGFPSHSSATLAFALAIAAGGAQAAGFVEDAKGTLTLRNFFINRDFKGDNATRSKAEEWTQNFLLDLKSGYTEGPLGLGLDVLGLYSVKLDGGKGTGGTQLLPLDHDGKPADRFGRLAVAGKLKLSETELRAGEWALVLPILRSDDGRSLPQTFRGSMLTSKEIENLTLYAGHITGNSPRDDGSMEEMTLFGTSPYTSDRTSDDFDFGGLEYSFNGKRTLVGVWYARLKDIYKQRYIQLQHSQPLGGDWTLGANIGYFDGEDDGEALEGHLDNKALSGLFSLRTGAHTFYLGLQRISGDSKWLRVNGTSGGTLANDSYNSSYDNARERSWQLRYDYNFAALGMPGLTFMTRYISGKNIHVGAVDDGEEWGRESEVAYVVQSGAAKNLTLRWRNTTMRRDYGSDNQFNEQRLIVQYPLSLFEGHHHHHH	soluble
MGSDKIHHHHHHMADKPFRLVTRSDFDGLVCATLLKELALIDEITFVHPKDMQDGQIPVTERDITTNLPYVEGVHLCFDHHLSETIRVGKKANHIIDPLAPSAARVVYNYFGGKARFPRIPDDMMDAVDKGDSAQYNMEEVLHPGGWELLNFLMDARTGLGRFREFRIPNYQLMMELIDYCRDHAIEDILDLPDVSERVDLYREHEPRFKEQLKRCSTVHGNLVVLDLRDEDPIWAGNRFMIYALYPETNISIHVLWGRERRNTVFAVGKSIFNRSSNTNIGELMLGYGGGGHHAAGTCQVDNAQAADVLARLIARITEDG	not soluble
MSQLVECVPNFSEGNNQEVIDAISQAISQTPGCVLLDVDAGPSTNRTVYTFVGQPECVVEGALSAARTASQLIDMRKHKGEHPRMGALDVCPFIPVRGVSMDECVLCAKAFGQRLAEELNVPVYLYGEAAQMPSRQTLPAIRAGEYEALPEKLKQAEWVPDFGPSSFVPSWGATVTGARKFLIAFNINLLSTKEQAHRIALNLREQGRGKDQPGRLKKVQGIGWYLEEKNLAQVSTNLLDFEVTALHTVYEEARREAQELNLPVVGSQLVGLVPLKALLDAAAFYCDKEKLFVLEEEHRIRLVVNRLGLDSLAPFDPKERIIEYLVPDSGPEQSLLDASLRAFVREVGARSAAPGGGSVAAAVAALGAALASMVGQMTYGRRQFDHLDSTMRRLIPPFHAASAQLTSLVDADARAFAACLGAIKLPKNTPEERDRRTCALQEGLRQAVAVPLKLAETVSQLWPALQELAQCGNLSCLSDLQVAAKALETGVFGAYFNVLINLKDMTDDVFKEKTRHRISSLLQEAKTQAALVLGSLEARKE	soluble
SKYGLQDSDEEEEEHPSKTSTKKLKTAPLPPASQTTPLQMALNGKPAPPPQVEKKGQLEHHHHH	soluble
MIDREQIVRIVSDYLSTGETFLVEVAIHPGNRILVELDSAQGVCIDECVALSRHIESQVDRDIEDYELEVGSTGLTSPLKVMRQWENCIDSELSVLLTNGMKETGRLITVAPEAIKLEVVRMVKPEGAKRKKPETQELTIVMADIKQAVRII	not soluble
MSLATLDVNPELYQAQLADKIARLKAMFVDYSMPELEVFESPVANYRMRAEFRIWHEGDDMYYIMFNQETREKYRVDQFPAASRLINDLMPLLMDAMKGSPILRHKLFQVDFLSTLSGEILVSLLYHRQLSEEWITAAQALKQRLNDEGFNLNLIGRARKMKVVLDRDYVVENLQVNGQPYVYKQVENSFTQPNAKVAEKMLEWAVDCTQESKGDLLELYCGNGNFSLALAQNFERVLATELAKPSVEAAQFNIAANQIGNVQIIRMSAEEFTQAMEGKREFNRLKDAGVDLQSYRCNTIFVDPPRSGMDIDTCKMVQGYERILYISCNPETLQENLQVLGETHQVVRFALFDQFPYTHHMEAGVMLERKKEGHHHHHH	soluble
MSLGETYAPQCAGPAPEPRTLPRTLPDGACDCHFHVFGDENGQPFSPHRSYTPPPAPLEAFQRVQKTLGLSRGVIVQPSVYGADNSTTLAALKEAGSAFRGVVVIDADTDTETLWAMHRLGVRGVRVNLIFKSGVEVSDVAALAEKVAPLGWHLQLLIDITEFADLYETVASLPVAVVIDHMGHMPTSCGLGHPGFTDLLRLLKEGRVWVKLSGAYRFTASKDFPYDDVTPYARALIEANPNRLLWASDWPHPCIPVPMPNDASLLEMLFNWVENDDALIKQILVDNPAKLYGEGHHHHHH	not soluble
MGSDKIHHHHHHVPRVRTVKEDHRAGVWCARGMTGLLRRLHAVLDEFNAAYPWDHNAYYHRWILRQLPPRFGRALDAGSGSGDLARLLAGRADRVCGIDIDPVITARARELTDPAAPVVFTVGDVLTDTPAGPYDVVTCVAAVHHMPLAEALTCFRDLLAPGGTLVVVGLYRAHDPIDVLLDGVSVVLNPLIGWVRHRGRRAPRPVSMTAVTTPATMTFAEIVAEARRVLPRARLRRRLLWRYTLVWRKP	not soluble
